The text below walks through data of US20250346657A1 (INTERVET, published 2025).

The experiment deals with T1, feline NGF (feline, UniProt A0ABI7YSK6 122-241).
T1 construct: domain: C-terminal portion; also called fNGF; feline beta-NGF
As to the kind of experiment: ELISA, feline NGF. In general terms: In an ELISA, binding on a coated surface is turned into a signal by an enzyme label.

B1: human-feline chimeric Fulranumab (antibody)
heavy: EVQLVESGGGLVQPGGSLRLSCAASGFTLRSYSMNWVRQAPGKGLEWVSYISRSSHTIFYADSVKGRFTISRDNAKNSLYLQMDSLRDEDTAMYYCARVYSSGWHVSDYFDYWGQGILVTVSSASTTAPSVFPLAPSCGTTSGATVALACLVLGYFPEPVTVSWNSGALTSGVHTFPAVLQASGLYSLSSMVTVPSSRWLSDTFTCNVAHPPSNTKVDKTVRKTDHPPGPKPCDCPKCPPPEMLGGPSIFIFPPKPKDTLSISRTPEVTCLVVALGPDDSDVQITWFVDNTQVYTAKTSPREEQFASTYRVVSVLPILHQDWLKGKEFKCKVNSKSLPSPIERTISKAKGQPHEPQVYVLPPAQEELSRNKVSVTCLIKSFHPPDIAVEWEITGQPEPENNYRTTPPQLDSDGTYFVYSKLSVDRSHWQRGNTYTCSVSHEALHSHHTQKSLTQSPGK
light: AIQLTQSPSSLSASVGDRVTITCRASQGISSALAWYQQKPGKAPKLLIYDASSLESGVPSRFSGSGSGTDFTLTISSLQPEDFATYYCQQFNSYPLTFGGGTKVEIKRSDAQPSVFLFQPSLDELHTGSASIVCILNDFYPKEVNVKWKVDGVVQNKGIQESTTEQNSKDSTYSLSSTLTMSSTEYQSHEKFSCEVTHKSLASTLVKSFNRSECQRE
notes: Chains from the 'List of heavy and light chains to make human-feline chimeric and felinized antibodies'; also called Ful Chimeric; Ful Chim
As a reminder, the EC50 is the concentration giving half of the maximal effect. Turning to B1, the EC50 was 0.018 to 0.019 nM.
